# Reference: US20250043302A1, “MUTATED HYDROXYPHENYLPYRUVATE DIOXYGENASE POLYPEPTIDE, AND CODING GENE AND USE THEREOF” (BEIJING DABEINONG BIOTECHNOLOGY CO., LTD., priority 2021, published 2025)
# Where a chain is given by its changes, count along the chain named. Names and notes keep the numbering of the source.
# B1: AtHPPDm-F415W-02: nucleotide sequence encoding Arabidopsis thaliana HPPD with F415W; vector DBN11793 (nucleic acid)
# DNA: ATGGGACATCAGAATGCTGCTGTATCAGAAAATCAAAATCATGATGATGGAGCCGCCTCCTCACCAGGGTTTAAGTTGGTTGGGTTCTCCAAGTTTGTACGGAAGAACCCAAAATCCGACAAGTTCAAGGTTAAACGCTTCCACCACATTGAATTCTGGTGCGGCGACGCCACCAATGTTGCTCGGCGTTTTTCATGGGGTTTAGGCATGAGATTCTCAGCAAAGAGTGACCTGAGCACCGGCAACATGGTTCATGCTAGCTATCTCTTAACATCTGGAGATTTGAGGTTTCTTTTCACGGCGCCGTACTCACCATCACTCTCCGCCGGCGAGATCAAACCCACCACGACTGCAAGCATACCTTCATTTGATCATGGTAGTTGCAGATCCTTCTTCTCGTCGCACGGCCTAGGGGTGCGCGCGGTCGCCATCGAAGTTGAAGATGCAGAATCAGCGTTTAGTATCAGCGTGGCAAATGGAGCTATTCCTTCCTCCCCTCCAATTGTCCTCAATGAGGCTGTAACTATTGCCGAGGTGAAGTTGTATGGAGATGTTGTGCTGAGATATGTTTCTTACAAGGCAGAGGACACTGAGAAATCTGAATTTTTGCCTGGTTTTGAAAGGGTCGAGGATGCTTCAAGTTTTCCTCTTGATTACGGCATACGACGGTTGGATCACGCGGTTGGAAATGTACCAGAACTTGGGCCGGCGCTCACTTATGTGGCTGGTTTCACTGGATTCCATCAATTTGCTGAGTTCACAGCTGATGATGTTGGGACTGCTGAAAGTGGGTTGAACTCTGCAGTCCTCGCCTCTAATGATGAAATGGTGCTCCTCCCGATCAACGAGCCTGTGCATGGCACCAAAAGGAAATCACAAATACAGACATATCTTGAGCACAATGAAGGTGCAGGGCTTCAACATCTTGCACTGATGTCTGAAGACATTTTCCGTACGCTGAGAGAGATGAGGAAGAGAAGTAGTATTGGTGGATTTGACTTCATGCCTTCTCCCCCACCAACTTACTACCAGAACTTGAAGAAGAGGGTTGGTGATGTGCTATCTGATGACCAGATCAAGGAGTGTGAAGAATTGGGCATTCTTGTTGATCGGGACGACCAAGGAACATTACTGCAGATATTTACAAAACCACTTGGTGACCGCCCCACTATTTTTATTGAGATCATACAAAGAGTCGGCTGCATGATGAAGGATGAGGAAGGAAAAGCATATCAATCTGGTGGTTGTGGCGGCTTTGGGAAAGGAAACTGGTCTGAGCTGTTCAAATCCATCGAGGAGTATGAGAAGACCTTGGAGGCCAAGCAGCTCGTGGGTTGA
# modifications: AtHPPDm-F415W-02 Nucleotide Sequence
# notes: vector DBN11793
# B2: AtHPPDm-F383Y-02: nucleotide sequence encoding Arabidopsis thaliana HPPD with F383Y; vector DBN11797 (nucleic acid)
# DNA: B1 DNA with T1175A, G1271T, G1272C
# modifications: AtHPPDm-F383Y-02 Nucleotide Sequence
# notes: vector DBN11797
# B3: AtHPPDm-F372A-F415W-02: nucleotide sequence encoding Arabidopsis thaliana HPPD with F372A+F415W; vector DBN11794 (nucleic acid)
# DNA: B1 DNA with T1141G, T1142C, T1143C
# modifications: AtHPPDm-F372A-F415W-02 Nucleotide Sequence
# notes: vector DBN11794
# System: Arabidopsis thaliana T1 plants
# Test: Topramezone tolerance of transgenic Arabidopsis thaliana T1 plants (spray, bleached leaf area grade, damage score)
# Assay type: in vivo
# Settings: Table 13; topramezone 25 g ai/ha (1×)
# Method in brief: (§1)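 Damage graded 0–3 from the proportion of bleached leaf area 7 days after spraying. Plants were glufosinate-selected T1 lines, 18 days after sowing, plus vector and wild-type controls. Rates: mesotrione 52.5–420, isoxaflutole 35–280, topramezone 25–200 g ai/ha, with water (0×).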
row,Molecule,Resistance evaluation
1,B1,Non-resistant
2,B2,Non-resistant
3,B3,Poorly

# Same assay, conditions: Table 13; topramezone 25 g ai/ha (1×); number of plants at grade 0
row,Molecule,Classification and statistics of the grade of pesticide damage Grade 0
1,B1,0
2,B2,0
3,B3,4

# Same assay, conditions: Table 13; topramezone 25 g ai/ha (1×); number of plants at grade 1
row,Molecule,Classification and statistics of the grade of pesticide damage Grade 1
1,B1,0
2,B2,0
3,B3,4

# Same assay, conditions: Table 13; topramezone 25 g ai/ha (1×); number of plants at grade 2
row,Molecule,Classification and statistics of the grade of pesticide damage Grade 2
1,B1,0
2,B2,0
3,B3,7

# Same assay, conditions: Table 13; topramezone 25 g ai/ha (1×); number of plants at grade 3
row,Molecule,Classification and statistics of the grade of pesticide damage Grade 3
1,B1,16
2,B2,16
3,B3,1

# Same assay, conditions: Table 13; topramezone 25 g ai/ha (1×); pesticide damage score
row,Molecule,Scores
1,B1,100
2,B2,100
3,B3,44

# Same assay, conditions: Table 13; topramezone 100 g ai/ha (4×)
row,Molecule,Resistance evaluation
1,B1,Non-resistant
2,B2,Non-resistant
3,B3,Non-resistant

# Same assay, conditions: Table 13; topramezone 100 g ai/ha (4×); number of plants at grade 0
row,Molecule,Classification and statistics of the grade of pesticide damage Grade 0
1,B1,0
2,B2,0
3,B3,0

# Same assay, conditions: Table 13; topramezone 100 g ai/ha (4×); number of plants at grade 1
row,Molecule,Classification and statistics of the grade of pesticide damage Grade 1
1,B1,0
2,B2,0
3,B3,0

# Same assay, conditions: Table 13; topramezone 100 g ai/ha (4×); number of plants at grade 2
row,Molecule,Classification and statistics of the grade of pesticide damage Grade 2
1,B1,0
2,B2,0
3,B3,3

# Same assay, conditions: Table 13; topramezone 100 g ai/ha (4×); number of plants at grade 3
row,Molecule,Classification and statistics of the grade of pesticide damage Grade 3
1,B1,16
2,B2,16
3,B3,13

# Same assay, conditions: Table 13; topramezone 100 g ai/ha (4×); pesticide damage score
row,Molecule,Scores
1,B1,100
2,B2,100
3,B3,94

# System: Arabidopsis thaliana T1 plants
# Test: Isoxaflutole tolerance of transgenic Arabidopsis thaliana T1 plants (spray, bleached leaf area grade, damage score);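 as to Scores: Weighted damage index from 0 to 100 where higher means more damage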
# Assay type: in vivo
# Settings: isoxaflutole 35 g ai/ha
# Method in brief: as §1
Molecule,Resistance evaluation,Scores
B1,Non-resistant,100
B2,Non-resistant,100
B3,Poorly,54

# Same assay, conditions: isoxaflutole 35 g ai/ha; number of plants in grade
Molecule,Classification and statistics of the grade of pesticide damage Grade 0,Classification and statistics of the grade of pesticide damage Grade 1,Classification and statistics of the grade of pesticide damage Grade 2,Classification and statistics of the grade of pesticide damage Grade 3
B1,0,0,0,16
B2,0,0,0,16
B3,0,9,4,3

# Same assay, conditions: isoxaflutole 70 g ai/ha
Molecule,Resistance evaluation,Scores
B1,Non-resistant,100
B2,Non-resistant,100
B3,Non-resistant,100

# Same assay, conditions: isoxaflutole 70 g ai/ha; number of plants in grade
Molecule,Classification and statistics of the grade of pesticide damage Grade 0,Classification and statistics of the grade of pesticide damage Grade 1,Classification and statistics of the grade of pesticide damage Grade 2,Classification and statistics of the grade of pesticide damage Grade 3
B1,0,0,0,16
B2,0,0,0,16
B3,0,0,0,16

# System: Arabidopsis thaliana T1 plants
# Test: Mesotrione tolerance of transgenic Arabidopsis thaliana T1 plants (spray, bleached leaf area grade, damage score)
# Assay type: in vivo
# Parameters: Scores: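 damage score 0-100 computed as Σ(N×S)/(T×M)×100 over grades 0-3 with higher meaning more damage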
# Settings: mesotrione 52.5 g ai/ha
# Method in brief: as §1
Molecule,Resistance evaluation,Scores
B1,Non-resistant,100
B2,Non-resistant,100
B3,Poorly resistant,65

# Same assay, conditions: mesotrione 52.5 g ai/ha; number of plants in grade
Molecule,Classification and statistics of the grade of pesticide damage Grade 0,Classification and statistics of the grade of pesticide damage Grade 1,Classification and statistics of the grade of pesticide damage Grade 2,Classification and statistics of the grade of pesticide damage Grade 3
B1,0,0,0,16
B2,0,0,0,16
B3,0,4,9,3

# Same assay, conditions: mesotrione 105 g ai/ha
Molecule,Resistance evaluation,Scores
B1,Non-resistant,100
B2,Non-resistant,100
B3,Non-resistant,100

# Same assay, conditions: mesotrione 105 g ai/ha; number of plants in grade
Molecule,Classification and statistics of the grade of pesticide damage Grade 0,Classification and statistics of the grade of pesticide damage Grade 1,Classification and statistics of the grade of pesticide damage Grade 2,Classification and statistics of the grade of pesticide damage Grade 3
B1,0,0,0,16
B2,0,0,0,16
B3,0,0,0,16
